{"source": "patent KR20220147769A", "about": "(dated 2022)", "binders": {"B1": {"name": "RB6 (antibody, V domains shown)", "VH": "EVQLLESGGGLVQPGGSLRLSCAASGFTFSSYDMSWVRQAPGKGLEWVSGISYSGGSTYYADSVKGRFTISRDNSKNTLYLQMNSLRAEDTAVYYCARDVNFVPLVTFDYWGQGTLVTVSS", "VL": "QSVLTQPPSASGTPGQRVTLSCTGSSSNIGSNSVTWYQQLPGTAPKLLIYDDNQRPSGVPDRFSGSKSGTSASLAISGLRSEDEADYYCGTWDYSLSAYVFGGGTKLTVL", "notes": "also called clone RB6; antibody (iii)"}, "B2": {"name": "RD10 (antibody, V domains shown)", "VH": "EVQLLESGGGLVQPGGSLRLSCAASGFTFSDYAMSWVRQAPGKGLEWVSAIYPGGGSTYYADSVKGRFTISRDNSKNTLYLQMNSLRAEDTAVYYCARNLFGFDYWGQGTLVTVSS", "VL": "QSVLTQPPSASGTPGQRVTISCTGSSSNIGSNAVYWYQQLPGTAPKLLIYDDSNRPSGVPDRFSGSKSGTSASLAISGLRSEDEADYYCGSWDDSLSAYVFGGGTKLTVL", "notes": "also called clone RD10; antibody (v)"}, "B3": {"name": "RD3 (antibody, V domains shown)", "VH": "EVQLLESGGGLVQPGGSLRLSCAASGFTFSDYAMSWVRQAPGKGLEWVSWIYSGSGNKYYADSVKGRFTISRDNSKNTLYLQMNSLRAEDTAVYYCARFPIARTSNSQSSYDGMDVWGQGTLVTVSS", "VL": "QSVLTQPPSASGTPGQRVTISCSGSSSNIGSNAVSWYQQLPGTAPKLLIYADNKRPSGVPDRFSGSKSGTSASLAISGLRSEDEADYYCGAWDSSLNAYVFGGGTKLTVL", "notes": "also called clone RD3; antibody (iv)"}}, "target": "T1, SARS-CoV S protein RBD antigen (SARS-CoV, UniProt P59594 306-527)", "T1 construct": "also called SARS-CoV RBD", "assay": "ELISA, 0.1 μg antigen coated, IgG4", "data": [{"binder": "B1", "values": [{"measurement": "binding result", "value": "binds"}]}, {"binder": "B2", "values": [{"measurement": "binding result", "value": "binds"}]}, {"binder": "B3", "values": [{"measurement": "binding result", "value": "binds"}]}]}
